Reference: PMC8119897

Assays:
[1] = target: Fructose-1,6-bisphosphate aldolase FBA^C of Bacillus methanolicus MGA3 (chromosomally encoded) (Bacillus methanolicus MGA3); test: crystal structure; FBA^C crystallised by sitting-drop vapor diffusion at 20°C; reservoir 0.1 M sodium acetate trihydrate pH 4.5, 2.0 M ammonium sulfate; molecular replacement with PDB 3Q94
[2] = target: Fructose-1,6-bisphosphate aldolase FBA^P of Bacillus methanolicus MGA3 (encoded on plasmid pBM19) (Bacillus methanolicus MGA3); test: crystal structure; FBA^P crystallised by sitting-drop vapor diffusion at 8°C; reservoir 20% PEG 4000, 0.2 M imidazole/malate buffer pH 6; molecular replacement with PDB 3Q94

Substance | stoichiometry N [1] | stoichiometry N [2]
Fructose-1,6-bisphosphate aldolase FBA^C of Bacillus methanolicus MGA3 (chromosomally encoded) (enzyme) | 4 | 
Fructose-1,6-bisphosphate aldolase FBA^P of Bacillus methanolicus MGA3 (encoded on plasmid pBM19) (enzyme) |  | 4
